How the values were obtained:
[1] = molecular target: biotinylated lysocin E derivative, Bu-type; assay: BLI; BLItz system, room temperature; biotinylated ligand (0.1 mg/ml) immobilised on a streptavidin biosensor; PBS with 0.05% Tween-20; 300 s association and 300 s dissociation
[2] = molecular target: biotinylated lysocin E derivative, natural type; assay: as above

Kd [1]: 3.4 µM | Kd [2]: 3.6 µM
Substance: recombinant human apolipoprotein A-I, wild type (from UniProt P02647 19-267) (natural protein)
